Measured values as given in patent US6127169.

Molecular target: specific cell surface receptors on mouse embryo fibroblasts

growth inhibition of synchronous mouse embryo fibroblasts (cell count): 100%
B1: mouse β-galactoside binding protein (GBP), natural or recombinant, complexed or non-complexed form not told (ligand)
chain: ACGLVASNLNLKPGECLKVRGEVASDAKSFVLNLGKDSNNLCLHFNPRFNAHGDANTIVCNTKEDGTWGTEHREPAFPFQPGSITEVCITFDQADLTIKLPDGHEFKFPNRLNMEAINYMAADGDFKIKCVAFE
modifications: 125I label in the receptor binding assays
